Results published in patent US10450368 (DUKE UNIVERSITY, dated 2019).

Assays:
[1] = target: T1, Histones; test: AtheNA, Ab 6.25 ug/ml
T1 construct: Mixture of proteins
From the text: (§1) AtheNA Multi-Lyte ANA Plus Test System is one such assay. This is luminex-based assay, which is also used to screen patient sera.

[2] = target: T2, SSA; test: AtheNA, Ab 6.25 ug/ml
T2 construct: also called SSA (Ro)
From the text: as §1

[3] = target: T3, RNP (ribonucleoprotein); test: AtheNA, Ab 6.25 ug/ml
T3 construct: Protein-RNA complex
From the text: as §1

[4] = target: T4, SSB (UniProt P05455 1-408); test: AtheNA, Ab 6.25 ug/ml
T4 sequence: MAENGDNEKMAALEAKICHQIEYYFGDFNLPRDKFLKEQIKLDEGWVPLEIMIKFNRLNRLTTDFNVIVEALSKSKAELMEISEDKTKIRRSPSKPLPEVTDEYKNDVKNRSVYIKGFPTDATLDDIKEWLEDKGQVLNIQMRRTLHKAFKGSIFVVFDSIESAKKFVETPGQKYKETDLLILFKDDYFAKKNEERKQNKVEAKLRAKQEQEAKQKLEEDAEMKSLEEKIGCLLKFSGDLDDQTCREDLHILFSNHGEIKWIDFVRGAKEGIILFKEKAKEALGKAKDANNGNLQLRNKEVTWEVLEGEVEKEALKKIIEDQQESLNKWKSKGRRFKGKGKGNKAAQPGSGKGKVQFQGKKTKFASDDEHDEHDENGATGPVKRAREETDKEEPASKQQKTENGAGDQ
From the text: as §1

[5] = target: T5, Sm (Smith antigen); test: AtheNA, Ab 6.25 ug/ml
T5 construct: Protein complex
From the text: as §1

[6] = target: T6, Scl-70 (UniProt P11387 1-765); test: AtheNA, Ab 6.25 ug/ml
T6 sequence: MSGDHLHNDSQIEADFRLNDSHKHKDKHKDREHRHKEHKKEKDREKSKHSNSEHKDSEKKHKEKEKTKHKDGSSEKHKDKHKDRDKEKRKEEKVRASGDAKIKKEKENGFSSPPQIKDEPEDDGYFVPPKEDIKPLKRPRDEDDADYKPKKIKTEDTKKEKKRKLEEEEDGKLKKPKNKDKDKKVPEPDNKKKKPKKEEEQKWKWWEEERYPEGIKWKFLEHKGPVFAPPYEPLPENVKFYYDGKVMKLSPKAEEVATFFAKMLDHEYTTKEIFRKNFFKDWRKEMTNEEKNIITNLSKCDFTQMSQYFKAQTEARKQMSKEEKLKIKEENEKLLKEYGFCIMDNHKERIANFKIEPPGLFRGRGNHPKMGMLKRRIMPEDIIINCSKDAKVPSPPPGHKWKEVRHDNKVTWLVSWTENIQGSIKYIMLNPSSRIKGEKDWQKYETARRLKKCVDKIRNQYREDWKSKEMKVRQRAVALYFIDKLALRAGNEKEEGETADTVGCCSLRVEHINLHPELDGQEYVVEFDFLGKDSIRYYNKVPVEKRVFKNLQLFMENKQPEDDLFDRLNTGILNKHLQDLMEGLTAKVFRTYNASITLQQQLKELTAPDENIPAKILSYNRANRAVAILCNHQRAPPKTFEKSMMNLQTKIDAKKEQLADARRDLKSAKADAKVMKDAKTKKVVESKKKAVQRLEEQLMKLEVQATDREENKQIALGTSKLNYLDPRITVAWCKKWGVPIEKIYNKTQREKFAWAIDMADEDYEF
From the text: as §1

[7] = target: T1, Histones; test: AtheNA, Ab 50 ug/ml
From the text: as §1

[8] = target: T2, SSA; test: AtheNA, Ab 50 ug/ml
From the text: as §1

[9] = target: T3, RNP (ribonucleoprotein); test: AtheNA, Ab 50 ug/ml
From the text: as §1

[10] = target: T4, SSB; test: AtheNA, Ab 50 ug/ml
From the text: as §1

[11] = target: T5, Sm (Smith antigen); test: AtheNA, Ab 50 ug/ml
From the text: as §1

[12] = target: T6, Scl-70; test: AtheNA, Ab 50 ug/ml
From the text: as §1

[13] = target: T1, Histones; test: AtheNA, Ab 25 ug/ml
[14] = target: T7, Jo-1 (UniProt P12081 1-509); test: AtheNA, Ab 25 ug/ml
T7 sequence: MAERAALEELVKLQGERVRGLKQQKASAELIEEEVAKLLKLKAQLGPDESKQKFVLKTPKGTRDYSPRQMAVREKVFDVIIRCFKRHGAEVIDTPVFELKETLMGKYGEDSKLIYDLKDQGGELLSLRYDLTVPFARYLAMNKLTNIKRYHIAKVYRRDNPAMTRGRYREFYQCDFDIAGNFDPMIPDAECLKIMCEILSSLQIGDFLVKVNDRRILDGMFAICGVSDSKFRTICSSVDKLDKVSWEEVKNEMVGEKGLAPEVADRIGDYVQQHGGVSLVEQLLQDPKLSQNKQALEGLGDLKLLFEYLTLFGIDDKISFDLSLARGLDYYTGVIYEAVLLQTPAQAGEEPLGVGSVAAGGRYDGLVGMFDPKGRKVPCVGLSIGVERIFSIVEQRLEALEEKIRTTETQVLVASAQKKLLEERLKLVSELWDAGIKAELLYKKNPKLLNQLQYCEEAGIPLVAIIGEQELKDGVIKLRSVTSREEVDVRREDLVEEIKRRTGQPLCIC

[15] = target: T4, SSB; test: AtheNA, Ab 25 ug/ml
[16] = target: T5, Sm (Smith antigen); test: AtheNA, Ab 25 ug/ml
[17] = target: T6, Scl-70; test: AtheNA, Ab 25 ug/ml
[18] = target: T1, Histones; test: AtheNA, Ab 6.25 ug/ml; remark: listed apart in the source
[19] = target: T2, SSA; test: AtheNA, Ab 6.25 ug/ml; remark: listed apart in the source
[20] = target: T3, RNP (ribonucleoprotein); test: AtheNA, Ab 6.25 ug/ml; remark: listed apart in the source
[21] = target: T5, Sm (Smith antigen); test: AtheNA, Ab 6.25 ug/ml; remark: listed apart in the source
[22] = target: T6, Scl-70; test: AtheNA, Ab 6.25 ug/ml; remark: listed apart in the source

B1: CH493 (antibody, V domains shown)
VH: QVRLLQYGGGVKRPGASMTISCVASGYNFNDYYIHWVRQAPGQGLELMGWIDPSGGRTDYAGAFGDRVSMYRDKSMNTLYMDLRSLRSGDTAMYYCVRNVGTAGSLLHYDHWGLGVMVTVSS
VL: EIVLTQSPATLSVSPGERVTLSCRASQSVRNNLAWYRQKRGQAPRLLIYGASTRATGIPARFSGSGSGTEFTLTISSMQSEDFAVYYCQQYNNWWTFGQGTKVEIK
notes: also called CH235.9; DH493
AtheNA signal [1]: 174 | AtheNA signal [2]: 22 | AtheNA signal [3]: 32 | AtheNA signal [4]: 15 | AtheNA signal [5]: 46 | AtheNA signal [6]: 17 | AtheNA signal [7]: 166 | AtheNA signal [8]: 155 | AtheNA signal [9]: 69 | AtheNA signal [10]: 70 | AtheNA signal [11]: 37 | AtheNA signal [12]: 36

B2: CH557 (antibody, V domains shown)
VH: QVRLAQYGGGVKRLGATMTLSCVASGYTFNDYYIHWVRQAPGQGFELLGYIDPANGRPDYAGALRERLSFYRDKSMETLYMDLRSLRYDDTAMYYCVRNVGTAGSLLHYDHWGSGSPVIVSS
VL: EIVLTQSPATLSASPGERVTLTCRASRSVRNNVAWYQHKGGQSPRLLIYDASTRAAGVPARFSGSASGTEFTLAISNLESEDFTVYFCLQYNNWWTFGQGTRVDIK
notes: also called CH235.12; CH557_4A/293i
AtheNA signal [13]: 8 relative luminescence units | AtheNA signal [14]: 2 relative luminescence units | AtheNA signal [15]: 12 relative luminescence units | AtheNA signal [16]: 6 relative luminescence units | AtheNA signal [17]: 4 relative luminescence units | AtheNA signal [18]: 4 relative luminescence units | AtheNA signal [19]: 4 relative luminescence units | AtheNA signal [20]: 4 relative luminescence units | AtheNA signal [21]: 4 relative luminescence units | AtheNA signal [22]: 3 relative luminescence units
